Assay results: US20090156421A1 (published 2009)
Like-named read-outs stand apart in the source and are kept apart here. One block for each molecule: values may come before it.

Columns and labels:
[1] = biological target: IL-13Rα1 + IL-4R co-immobilised on one sensor chip surface (high affinity receptor) (human) (UniProt P78552); test: SPR, IL-13Rα1 and IL-4R co-immobilised, heterogeneous ligand model, component 2 (high affinity); column head misprinted 'Kd 2 × 10^6'
[2] = biological target: IL-13Rα1 + IL-4R co-immobilised on one sensor chip surface (high affinity receptor) (human) (UniProt P78552); test: SPR, IL-13Rα1 and IL-4R co-immobilised, heterogeneous ligand model, component 2 (high affinity)
[3] = biological target: Cy5-IL-13Rα1 (Cy5 labeled IL-13Rα1) (human) (UniProt P78552); test: TR-FRET assay 1, competition with 10 nM Eu-IL-13 for 10 nM Cy5-IL-13Rα1
[4] = biological target: Cy5-IL-13Rα1 plus IL-4R (500 nM) in solution (human) (UniProt P78552); test: TR-FRET assay 1, competition with 10 nM Eu-IL-13, 10 nM Cy5-IL-13Rα1, 500 nM IL-4R
[5] = biological target: IL-13Rα1 + IL-4R co-immobilised on one sensor chip surface (high affinity receptor) (human) (UniProt P78552); test: SPR, IL-13Rα1 and IL-4R co-immobilised, heterogeneous ligand model, component 1 (lower affinity)
[6] = biological target: Cy5-IL-13Rα1 (Cy5 labeled IL-13Rα1) (human) (UniProt P78552); test: TR-FRET assay 1, competition with Eu-IL-13 for Cy5-IL-13Rα1, Kd calculated from IC50
[7] = biological target: IL-13Rα1 + IL-4R co-immobilised on one sensor chip surface (high affinity receptor) (human) (UniProt P78552); test: SPR, IL-13Rα1 and IL-4R co-immobilised, against IL-13Rα1 alone
[8] = biological target: IL-13Rα1 monomer (IL-13Rα1 extracellular domain) (human) (UniProt P78552); test: SPR, IL-13Rα1 immobilised, 1:1 model
[9] = biological target: IL-13Rα1 monomer (IL-13Rα1 extracellular domain) (human) (UniProt P78552); test: SPR, IL-13Rα1 immobilised
[10] = biological target: Cy5-IL-13Rα1 plus IL-4R (500 nM) in solution (human) (UniProt P78552); test: TR-FRET assay 1, competition with Eu-IL-13, with 500 nM IL-4R, Kd calculated from IC50
[11] = biological target: IL-13R110Q/IL-13Rα1 binary complex (human) (UniProt P35225); test: SPR, IL-13Rα1 immobilised, 8 nM IL-13R110Q in buffer, IL-4R injected, 1:1 model
[12] = biological target: IL-13R110Q/IL-13Rα1 binary complex (human) (UniProt P35225); test: as above; remark: listed apart in the source
[13] = biological target: T1, Eu-IL-13 (europium chelate labeled IL-13) (human, UniProt P35225 35-146, limits assumed, europium chelate (Eu) label, directly labeled; site not stated); test: TR-FRET assay 1, direct: Cy5-IL-13Rα1 titrated into 10 nM Eu-IL-13, no IL-4R
T1 construct: also called Eu-labeled IL-13
Method: (§1) All TR-FRET experiments were performed on a 384-well black plate (Corning Costar, Acton, Mass.) in 20 μL final volume of PBS plus 0.1% BSA. For example, excitation and emission conditions for TR-FRET assay 1 and 2 were 345 nm and 665 nm, respectively. All TR-FRET measurements were taken using an Envision plate reader (Perkin Elmer) using the TR-FRET mode.
Binding between IL-13 and IL-13Rα¹ was analyzed using Eu-IL-13 (Eu=Europium chelate, FRET donor) and Cy5-IL-13Rα1 (Cy5=Cyanine dye, FRET acceptor) (schematic shown in FIG. 3) described in Example 5. Affinity measurements were performed by adding various concentrations of Cy5-IL-13Rα1 in the presence of 10 nM Eu-IL-13 with and without 500 nM IL-4R.

[14] = biological target: T1, Eu-IL-13 (europium chelate labeled …); test: TR-FRET assay 1, competition with 10 nM Cy5-IL-13Rα1 for 10 nM Eu-IL-13, no IL-4R
Method: as §1
(§2) Assays were performed as described in Example 5. Competition experiments were performed by adding various concentrations of unlabeled IL-13, IL-13R110Q, or IL-13Rα1 to the Eu-IL-13 (10 nM)/Cy5-IL-13Rα1 (10 nM) binary complex with or without IL-4R (500 nM).
(§3) To confirm the dissociation constant of Cy5-IL-13Rα1, a competition experiment was performed using unlabeled IL-13Rα1.

[15] = biological target: T2, Eu-IL-13 plus IL-4R (500 nM) in solution (human, UniProt P35225 35-146; P24394 26-232, limits assumed, europium chelate label; site not stated); test: TR-FRET assay 1, competition with 10 nM Cy5-IL-13Rα1 for 10 nM Eu-IL-13, with 500 nM IL-4R
T2 construct: The partners of IL-13Rα1 in the ternary format of TR-FRET assay 1
Method: as §1, §2, §3

Sequence of IL-13R110Q/IL-13Rα1 binary complex (human) (P35225 35-146, one chain of several): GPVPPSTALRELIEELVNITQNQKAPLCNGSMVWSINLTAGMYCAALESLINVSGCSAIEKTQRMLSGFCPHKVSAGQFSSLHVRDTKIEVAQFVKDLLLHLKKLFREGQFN
Sequence of IL-13Rα1 + IL-4R co-immobilised on one sensor chip surface (high affinity receptor) (human) (P24394 26-232): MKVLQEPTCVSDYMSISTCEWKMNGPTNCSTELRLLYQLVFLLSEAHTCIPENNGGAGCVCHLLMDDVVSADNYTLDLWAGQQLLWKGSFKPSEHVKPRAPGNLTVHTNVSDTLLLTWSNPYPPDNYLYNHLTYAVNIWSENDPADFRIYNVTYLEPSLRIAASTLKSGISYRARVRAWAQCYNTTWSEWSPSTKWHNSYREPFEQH
T1 sequence (P35225 other isoform, or with tags, fused parts or gaps limits assumed, form in doubt): as the sequence (P35225 35-146, one chain of several) above, with Q110R counted along it
Sequence of Cy5-IL-13Rα1 plus IL-4R (500 nM) in solution (human) (P24394 26-232): as the sequence (P24394 26-232) above
T2 sequence (P35225 other isoform, or with tags, fused parts or gaps limits assumed, form in doubt, chain 1 of 2): as the sequence (P35225 35-146, one chain of several) above, with Q110R counted along it
T2 sequence (P24394 26-232 limits assumed, form in doubt, chain 2 of 2): as the sequence (P24394 26-232) above

kon [1]: 3.77e+06 M⁻¹ s⁻¹
Kd [2]: 0.53 nM
koff [2]: 0.002 s⁻¹
IC50 [3]: 27 nM
IC50 [4]: 12 nM
Kd [5]: 14.5 nM
koff [5]: 0.018 s⁻¹
kon [5]: 1.24e+06 M⁻¹ s⁻¹
Kd [6]: 6.7 nM
fold lower Kd than to IL-13Rα1 alone [7]: 17 fold
Kd [8]: 8.93 nM
koff [8]: 0.015 s⁻¹
kon [8]: 1.68e+06 M⁻¹ s⁻¹
t½ (decay of binding) [9]: 50 s
Kd [10]: 0.3 nM
Molecule: IL-13R110Q (from UniProt P35225 35-146) (ligand)

Kd [11]: 115 nM
koff [11]: 0.0051 s⁻¹
kon [11]: 44000 M⁻¹ s⁻¹
koff [12]: 0.005 s⁻¹
Molecule: soluble form of carrier-free human IL-4Rα monomer (R&D Systems) (from UniProt P24394 26-232) (receptor)

EC50 [13]: 10 nM
B1: Cy5-IL-13Rα1 (Cy5 labeled IL-13Rα1) (receptor, human, UniProt P78552 22-343, looked up)
chain: GGGGAAPTETQPPVTNLSVSVENLCTVIWTWNPPEGASSNCSLWYFSHFGDKQDKKIAPETRRSIEVPLNERICLQVGSQCSTNESEKPSILVEKCISPPEGDPESAVTELQCIWHNLSYMKCSWLPGRNTSPDTNYTLYYWHRSLEKIHQCENIFREGQYFGCSFDLTKVKDSSFEQHSVQIMVKDNAGKIKPSFNIVPLTSRVKPDPPHIKNLSFHNDDLYVQWENPQNFISRCLFYEVEVNNSQTETHNVFYVQEAKCENPEFERNVENTSCFMVPGVLPDTLNTVRIRVKTNKLCYEDDKLWSNWSQEMSIGKKRNST
modifications: Cy5 label, directly labeled; site not stated
notes: extracellular domain; also called IL-13R-Cys5; Cy5-IL-13RI1

IC50 [14]: 20 nM
IC50 [15]: 11 nM
B2: IL-13Rα1 monomer (IL-13Rα1 extracellular domain) (receptor, human, UniProt P78552 22-343, looked up)
chain: B1 chain
notes: extracellular domain; Expressed and purified as in Yang et al. 2006; also called IL-13RI1; IL-13R1
